Data reported in the DeepSol protein solubility set.

Assay: soluble on expression in E. coli; label from the status in PepcDB or PDB records

Sequence	soluble on expression in E. coli
MGSDKIHHHHHHMLRGINRQIIFEDDEDYQNFMGTIKETQEKSGYEVYAYCLMSNHVHLLLKEVTEDLGIAFRRIGAIYVYWYNWKYSRRGHLFQARYKSEAVETDSYFLTVLRYIHQNPYKAGIVKNIADYPWSSYGEYVGEPRICDVEFGLNMFSTNRTNAVKLFEEFNLAENQDQCLDYNQDVRLNDTEASNFIRSISDVQSPTEIQGFEKDKRNEVIKKCKSKGLSIRQIERLTGVSFGVIRTI	not soluble
MNFNQFENQNFFNGNPSDTFKDLGKQVFNYFSTPSFVTNIYETDELYYLEAELAGVNKEDISIDFNNNTLTIQATRSAKYKSEQLILDERNFESLMRQFDFEAVDKQHITASFENGLLTITLPKILEHHHHHH	soluble
MSRVKLGHHYYYIVTPQDLRDGKYKGKNIVIEGEIKDKPIIEFLPMELPSYRTIFRVSGFKVEFSGTPNVRMGEKVKVYGVFVGDGIIARAIETEGAIYITEE	soluble
MRGSHHHHHHTDPALRAASTFTSDTLPADHKAAIRQMKHALRAQLGDVQQIFNQLSDDIATRVAEINALKAQGDAVWPVLSYADIKAGHVTAEQREQIKRRGCAVIKGHFPREQALGWDQSMLDYLDRNRFDEVYKGPGDNFFGTLSASRPEIYPIYWSQAQMQARQSEEMANAQSFLNRLWTFESDGKQWFNPDVSVIYPDRIRRRPPGTTSKGLGAHTDSGALERWLLPAYQRVFANVFNGNLAQYDPWHAAHRTEVEEYTVDNTTKCSVFRTFQGWTALSDMLPGQGLLHVVPIPEAMAYVLLRPLLDDVPEDELCGVAPGRVLPVSEQWHPLLIEALTSIPKLEAGDSVWWHCDVIHSVAPVENQQGWGNVMYIPAAPMCEKNLAYAHKVKAALEKGASPGDFPREDYETNWEGRFTLADLNIHGKRALGMDVGLCGR	soluble
MAKKKSVFTCQECGYQSPKYLGRCPNCSAWSSFVEEVEVQEVKNARVSLNGEKSRPTKLKDVSSINYSRTKTDMDEFNRVLGGGVVPGSLVLIGGDPGIGKSTLLLQVSTQLANKGTVLYVSGEESAEQIKLRSERLGDIDNEFYLYAETNMQSIRSEIEKIKPDFLIIDSIQTIMSPEVSSVQGSVSQVREVTAELMQLAKTNNIATFIVGHVTKEGTLAGPRMLEHMVDTVLYFEGERHHTFRILRAVKNRFGSTNEIGIFEMQSGGLVEVLNPSQVFLEERLDGATGSAIVVTMEGTRPILAEVQALVTPTVFGNAKRTTTGLDFNRVSLIMAVLEKRCGLLLQNQDAYLKSAGGVKLDEPAIDLAVAVAIASSYKEKPTNPQESFIGEIGLTGEIRRVTRIEQRINEASKLGFTKIYAPKNSLAGIEIPKGIDVIGVTTVSQVLKAVFST	not soluble
MGSDKIHHHHHHMRILLIHQNFPGQFKHLAPALVANGHEVRTLTLRQDLPDQWQGVTVHRYRAQRNSSPTVHPWVGDFETKVIRGEACFRAALQLRNQGYQPDLILAHPGWGETLFLQDVWPAAKLAIYCEFYYRSAGSDVDFDPEFQRPQGEEDTACRLQLKNLIYTMQGDRVTAGIAPTHWQADQFPEPLRSKITVVHDGIDTEAIAPNPSATITLNNQLKLGRNDEVITFVNRNLEPYRGYHIFMRSLPEILQQRPKARVILVGGDDVSYGARPPAGTWKQIFLKEVADRLDLSRVHFVGKIPYNAFLSLLQVSSVHVYLTYPFVLSWSLIEAMSCGCAIVASDTAPVREVISDGETGRLVNFFDPAGLAATVSELLASPSARAKLGKKARLFAQNHYDLQRVCLPQQMQWVRSLA	not soluble
MEMMPNIEELRKMRKNLGISQKDLAKVTGVSQSYIARLEKGTINPTYSKIKAIYEYLTKSSEKASTMVLTCDRIMTRNVVVCRSDESILNALNIMRDKGFSQLPVVNEENKVIGTIAENNINDMLLKGMSIDSLRGLTVRRVMSDVLPQVDRNTPVNIIYQLLKYSNAVLVIEAGNLVGIITKADILKTVAGMI	not soluble
MHIKYDQAMDDETKVEAILYATRNPLSVRSISLILGIEAGAISRIIKKLRLEYKKRNTSLEIAKIGNKYRIQLKKEYYDFAYRVMEPELSKYETGFLATVALNEGASLSFFRKRYGSRTDDMISKLKTMSLIRTSKKGNGTAIYLGENFEKVFGITKKELLERATEYDRQN	soluble
MTKIACVIVTYNRKQLLEEALNSVLIQTESPEYVFVIDNASTDGTEKYINDKFNFDNRQWHYVRCSQNLGGSAGFAQGMRLALQTDCSWISISDDDAIFEPGYFAALRKGIKQYPEQSVFSGSVLLPDGKHDMMHREVITNSATLTVRCVTDETYKHDFSYDIFSFVGILLSRQVIEAIGLPEQDYFIRFDDFEYAVRALKFGRFMNLSAAKVLHKTTYTRSALEHHHHHH	not soluble
MAGDPMTEQDIYKLLADGERVTLECKKAQNGVPNSLWETYSAFANTNGGILLLGVYENVAEKDSLMRFTITGVEDADKIRKDLWNTINSREKVNVNLLHDEDVQTISVNGKEVIAINVPRADYNLRPVYINNNLMRGTYRRNHEGDYHCTEQMIKMMVRDAYEDGNDRMFLEYYTMDDIDIPTLEGYRVMFKTNNPEHIWNSLDHKEFLMQLGGYVVNRKDGTEGLTIAGLLMFGKGLPVRERFDYLRMDYIDKSNLIGDQRYSDRLTYDGTWENNLFNFIRMVVPRLTRDIPRPFQMDGIIRKDDTPQHKAVREAFTNMIIHADLMLNGLLRVEKYDDRFVLSNPGLLKLPVEQIYAGGESKARNQRMQHMLRMIGYGENLGSGFPLILSAWNEKHWLKPELVEQPELMQVKLILHIENRVYVTKDVTKDVTKELTERQQIILEFMQADGTITISEMSQKTNVTERTIKRDIESLTEKGILSREGGRKEGRWVIRKILEHHHHHH	soluble
MSLLSGDETLTVYLARVLSCPELFRVSTPEEARRIAEKILSGEIEPPLEFFGLRRDAVNEVLAVTDGPAGENVAPVGLRVRGDSIVVNLYPGSRTYENFVRTEELTACIVPDPIRFLKALSKELAIETVGDGTKVAEGTRAYLELEAKEIHEGKPLTAELQVVGWGLLHPRPRALVRGESALLEALVELTRIHLDEDHVDACKRALEVVKRTIWSEEYQWAVEKVERELRGKEDGPDHQDTSPRIRRATGEGHHHHHH	soluble
MGHHHHHHSHMKALLSIEMDMQVPFHDVDSMGITWHGNYLRYFEVARCKLLDELGYNYRQMRASNYAWPIIDVQIKYVKPSTFEQHITVRAELVEWENRLKINYQIRDTATGERITKGYTIQAAVDMTSQEMCFVTPEVFRSKIAPLLAKVDNE	soluble
MNSCNRLPCAHEVLAVFAHPDDESFGLGAVLGDFTAQGTRLRGLCFTHGEASTLGRTDRNLGEVRREELAAAAQVLGVDHVQLLAYPDNGLAQIPLNELTQRVVDALAGADLLLVFDDNGVTGHPDHRRATEAALAAASTPSIPVLAWALPQPIADRLNAEFSASFGGRGHGHLDIMIEVDRSRQLAAIGCHFTQSADNPVLWRRLELLGDREYLRWLRRSVP	soluble
SLDVCRGMLCGFGAVCEPSVEDPGRASCVCKKNVCPAMVAPVCGSDASTYSNECELQRAQCNQQRRIRLLRQGPCGSRDPCANVTCSFGSTCVPSADGQTASCLCPTTCFGAPDGTVCGSDGVDYPSECQLLRHACANQEHIFKKFDGPCDPCQGSMSDLNHICRVNPRTRHPEMLLRPENCPAQHTPICGDDGVTYENDCVMSRIGAARGLLLQKVRSGQCQT	soluble
MGSDKIHHHHHHVHAASRGAHRRLGAMRSSASQPLLKAALWDMDGTIVDTEPYWIEAEHALVAAHGGQWSHAQAMQLVGQSLVFSAGVLQKAGVKLEAREIIDSLTARVVSKVRKSVPWRPGARELLDQLHEAGIRCALVTMSEGPLAREVVAALPKPYFEFLVTGDTVTNGKPHPEAYLKAVELLQQGDSALTIADCVALEDSAPGVAAAMAAGVATVAIPHIVPLPDDPARATWHSLEGRTVADLQQLVARRSEFAVGDIGLEDAAFRSHGLD	not soluble
MVGRKRRASMSITDGNGSLSDTVRPGDWVVVAELATPAFSVKNPESYQVASPLPLPLPSTLLGGLMRGASLLGSCTGGIASQSCIKKTGRIVKAAAPLSKPGQILGVEWEVVLRRLRKVLEPDSEEGSTRENRGNRVLDELSRISDALLRGYITPYNPVYAVFVARGRDNANRIEKALWYIDRLGDSESLVSARPVGRCQLAEFRSKSVNTPVALDSAVGGSFTVVYAPARAGRTGRTRRSEAIAIAMPVKKEAVERGYVLVYSEIEVEGSVYGCSVEGIDGRINVAVHESFHEVSGYGIWMPA	not soluble
GELPEKSKLQEIYQELTRLKAAVGELPEKSKLQEIYQELTRLKAAVGELPEKSKLQEIYQELTRLKAAVGELPEKSKLQEIYQELTRLKAAVGELPEKSKLQEIYQELTELKAAVGELPEKSKLQEIYQELTQLKAAVGELPDQSKQQQIYQELTDLKTAFERLGHH	soluble
MSGYDRALSIFSPDGHIFQVEYALEAVKRGTCAVGVKGKNCVVLGCERRSTLKLQDTRITPSKVSKIDSHVVLSFSGLNADSRILIEKARVEAQSHRLTLEDPVTVEYLTRYVAGVQQRYTQSGGVRPFGVSTLIAGFDPRDDEPKLYQTEPSGIYSSWSAQTIGRNSKTVREFLEKNYDRKEPPATVEECVKLTVRSLLEVVQTGAKNIEITVVKPDSDIVALSSEEINQYVTQIEQEKQEQQEQDKKKKSNH	soluble
MAHHHHHHMSSPAWSVYEGDWGSFCDDADNVPPTLSLKGCGLRQKCLLQRGAQGAVYLGEDADGNVFVVKRLFTQRSEFGVRGVSEGSLREATLLTYITERSKTLGPEPLFGVIRLERIVEAPFQELSLILERCAFNLSRMVFYSRKRAYSAAGLFPETPTRCPILAKMNVIQYLMRGILKILQFLHEECHIIHRDVKLGNLLVGEDGRVRLADFGSARFMHEPVEKMSDARSGEYTPISLRTTVIYQAPECLLGERSYTAAVDMWAAGVVFAELLLQQHLFHSCSELGMLSDIWKLLGTPSDDPSVCSGEGAVTYAVRTESTIERKFPERIVSAEGLDLLKRMLETNPKKRITDSEALRHPFLCGPAVESGMEEARRLWNKKVEACMQETVAQPAAMGMRSFYVDNVEFDEESGENDDDDGEIATLPTCLDCFPHILSDVNGRHDI	not soluble
MKPADIDKLISEIRTAIYAEQSHRKIIEIDPDIYRKVRAALSDLQAEASEYFQKQDIENYLTMNNRFQTLKRDFRSLFQRRFEKIVAKAIYDISGETLSLLTDEEKEFIEKIHNIITEEFESFIPKREEKNEARAEAQPAPADESPTAIADQKPQEEPQVVQDQHQPPAEIPSENIEIKKEDGRYVLVMITEDLPPIAQLDRNYSLHSNDLVYLPQDLASILAKRKVALVLDQ	soluble
MDRLIRSLLMNQNKQATDKLDHPDTSETVNISSLALLKMLRHARSGIPLEVMGLMLGDFVDDYTINVTDVFAMPQSGTSVTVESVDPVYQTKHMDLLKLVGRTENVVGWYHSHPGFGCWLSSVDVNTQQSFEALHPRAVAVVVDPIQSVKGKVMLDAFRSVNPLNLQIRPLAPTAEPRQTTSNLGHLTKPSLISVVHGLGTKYYSLNVAYRMGSNEQKMLMCLNKKSWYDQLNMSTYSELEKKQEEKFKSINKLIAVFNKDIDEVKEKPIADKKGKTQEEVKKFGKINAKQQLQMITSSLLNDSLCHQLTAMINAKSMT	not soluble
MSYCCCQSNIPPDGCIRDGMPVFCGLFPSGYRAPPRSLSPPAFRSVLVSGHQPQYADCQTRTGRPVRSPVTPPPAHTSAVHGALSLPGQPADMAMMCFHSQPRDEYGETDDTGMYPAHWKDWPSGCTRSQSVYR	soluble
